# Reference: patent EP4703388A1 (Jiangsu Hengrui Pharmaceuticals Co., Ltd., dated 2024)
# Substitutions are numbered along the chain they refer to.
# T1: cyno TF ECD-His (cTF-his) (monkey (cyno))
# T1 construct: also called bio-cTF-his; monkey TF-His protein
# T1 chain: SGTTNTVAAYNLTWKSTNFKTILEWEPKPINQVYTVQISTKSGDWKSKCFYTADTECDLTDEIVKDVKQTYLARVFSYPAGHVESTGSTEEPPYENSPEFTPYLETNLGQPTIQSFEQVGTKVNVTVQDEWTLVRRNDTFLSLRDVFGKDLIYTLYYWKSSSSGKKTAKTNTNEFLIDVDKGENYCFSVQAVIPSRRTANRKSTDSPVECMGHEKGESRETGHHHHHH
# B1: hu67-12 (antibody, human IgG1, kappa, V domains shown)
# VH: EVQLQESGPGLVKPSQTLSLTCTVSGFSLTNYGVNWIRQPPRKGLEWIGVIWSRGNTDYNAAFISRVTISKDNSKSQVSLKLSSVTAADTAVYYCARKDAVVATDALDYWGQGTTVTVSS
# VL: DIQMTQSPSSLSASVGDRVTITCKASQDVSTAVAWYQQKPGKAPKLLIYSTSYRYTGVPSRFSGSGSGTDFTFTISSLQPEDIATYYCQQHYSTPYTFGGGTKVEIKR
# B2: hu67-9 (antibody, human IgG1, kappa, V domains shown)
# VH: EVTLKQSGPVLVKPTQTLTLTCTVSGFSLTNYGVNWIRQPPRKALEWLAVIWSRGNTDYNAAFISRLTISKDTSKSQVVLKMTNMDPVDTATYYCARKDAVVATDALDYWGQGTTVTVSS
# VL: B1 VL
# B3: hu67-3 (antibody, human IgG1, kappa, V domains shown)
# VH: B1 VH with R42G, N73T, S76N
# VL: DIVMTQSPKSLAVSLGERATINCKASQDVSTAVAWYQQKPGQPPKLLIYSTSYRYTGVPDRFSGSGSGTDFTLTISSLQAEDVAVYYCQQHYSTPYTFGGGTKVEIKR
# B4: hu67-16 (antibody, human IgG1, kappa, V domains shown)
# VH: B1 VH
# VL: B1 VL with P8H, S9K, S10F, A43S
# B5: hu67-13 (antibody, human IgG1, kappa, V domains shown)
# VH: B2 VH
# VL: B1 VL with P8H, S9K, S10F, A43S
# B6: hu67-10 (antibody, human IgG1, kappa, V domains shown)
# VH: B2 VH with A44G, A49G, T73N
# VL: B1 VL
# B7: hu67-15 (antibody, human IgG1, kappa, V domains shown)
# VH: B1 VH with R42G, N73T, S76N
# VL: B1 VL with P8H, S9K, S10F, A43S
# B8: hu67-8 (antibody, human IgG1, kappa, V domains shown)
# VH: B1 VH
# VL: B3 VL with P43S, L73F
# B9: hu67-7 (antibody, human IgG1, kappa, V domains shown)
# VH: B1 VH with R42G, N73T, S76N
# VL: B3 VL with P43S, L73F
# B10: hu67-1 (antibody, human IgG1, kappa, V domains shown)
# VH: B2 VH
# VL: B3 VL
# B11: hu67-6 (antibody, human IgG1, kappa, V domains shown)
# VH: B2 VH with A44G, A49G, T73N
# VL: B3 VL with P43S, L73F
# B12: hu67-5 (antibody, human IgG1, kappa, V domains shown)
# VH: B2 VH
# VL: B3 VL with P43S, L73F
# B13: hu67-2 (antibody, human IgG1, kappa, V domains shown)
# VH: B2 VH with A44G, A49G, T73N
# VL: B3 VL
# B14: hu10H10-1 (antibody, V domains shown)
# VH: EVQLVQSGAEVKKPGASVKVSCKASGYTFITYWIEWVRQRPGQGLEWMGDILPGSGSTNYNENFKGRVTFTADTSTSTVYMQLSSLRSEDTAVYYCARSGYYGNSGFAYWGQGTLVTVSS
# VL: DIQMTQSPSSLSASVGDRVTITCKSSQSLLSSGNQKNYLTWYQQKPGKAPKLLIYWASTRESGVPSRFSGSGSGTDFTLTISSLQPEDFATYYCQNDYTYPLTFGQGTKLEIK
# notes: H1+L1; Full-length IgG
# B15: hu10H10-19 (antibody, V domains shown)
# VH: B14 VH
# VL: B14 VL with T103S
# notes: H1+L4; Full-length IgG
# B16: hu310-10 (antibody, human IgG1, kappa, V domains shown)
# VH: EVQLVQSGAEVKKPGASVKVSCKASGYSFTGYYMNWVRQAPGQGLEWMGEINPSTGGSTYNQKFKARVTLTVDQSTNTAYMELSSLRSEDTAVYYCARRELGGPFGYWGQGTTVTVSS
# VL: SIVMTQSPDSLAVSLGERATINCKASQSVSNGIAWYQQKPGQSPKLLIYFASNRYTGVPDRFSGSGYGTDFTLTISSLQAEDVAVYYCQQDYSSPWTFGGGTKVEIKR
# B17: hu310-5 (antibody, human IgG1, kappa, V domains shown)
# VH: B16 VH with L70M, N77S, A79V
# VL: SIQMTQSPSSLSASVGDRVTITCKASQSVSNGIAWYQQKPGKSPKLLIYFASNRYTGVPSRFSGSGYGTDFTFTISSLQPEDIATYYCQQDYSSPWTFGGGTKVEIKR
# B18: hu310-11 (antibody, human IgG1, kappa, V domains shown)
# VH: B16 VH
# VL: B16 VL with D9K, S10F, L73F
# B19: hu310-9 (antibody, human IgG1, kappa, V domains shown)
# VH: B16 VH
# VL: B16 VL with S1D, S43P, Y67S
# B20: hu310-3 (antibody, human IgG1, kappa, V domains shown)
# VH: B16 VH with L70M, N77S, A79V
# VL: B16 VL with D9K, S10F, L73F
# Target: T2, human TF ECD-His (hTF-his) (human, UniProt P13726 33-251)
# T2 construct: also called bio-hTF-his; human TF-His protein
# Assay: SPR Biacore T200, antibody on Protein A chip, TF-His as analyte, 1:1 model
Kd [nM],koff [s⁻¹],kon [M⁻¹ s⁻¹],Binder
18.7,0.000731,39200,B1
16.4,0.000564,34500,B2
14.2,0.000663,46600,B3
19.2,0.000702,36500,B4
19,0.000577,30400,B5
15.2,0.000594,39200,B6
19.1,0.000638,33400,B7
17.1,0.000668,39000,B8
14.3,0.000584,40800,B9
13.6,0.000585,42900,B10
21.7,0.000652,30000,B11
17.7,0.000582,32800,B12
15.8,0.000673,42600,B13

# Target: T1, cyno TF ECD-His (cTF-his)
# Assay: as above
Kd [nM],koff [s⁻¹],kon [M⁻¹ s⁻¹],Binder
14,0.000468,33400,B1
10.8,0.000351,32400,B2
13.5,0.000431,31900,B3
14.8,0.000478,32200,B4
10.9,0.000344,31500,B5
8.9,0.000356,40000,B6
13.4,0.000419,31200,B7
13.7,0.000446,32500,B8
10.5,0.00036,34200,B9
14.8,0.000358,24100,B10
14.3,0.000428,29900,B11
15.1,0.00039,25800,B12
12.7,0.000429,33700,B13

# Target: T3, human tissue factor (TF) on MDA-MB-231, NCI-H358 and HCT116 cells (human, UniProt P13726 33-295)
# T3 construct: whole, on cells; also called TF antigen; CD142
# Assay: flow cytometry on MDA-MB-231 cells
row,EC50 [nM],Binder
1,2.05,B14
2,2.35,B15
3,1.33,B16
4,1.55,B17
5,1.76,B18
6,1.97,B19
7,1.83,B20
